Laboratory results: paper PMC8448959 (ACS chemical biology, 2021)
Where two headings read alike, the source gives them in different places. Square brackets hold non-standard residues; d marks the D form. Ends that are not written are not given here. * marks the point of attachment. Lys(Et,iPr) = CCN(CCCC[C@H](N)C(=O)O)C(C)C; 4‑piperidine cap = not defined here; cyclohexyl = C1CCC(*)CC1

T1: MPP8 chromodomain (residues 55-116), N-terminal His-tag (UniProt Q99549-1 55-116)
T1 sequence (looked up): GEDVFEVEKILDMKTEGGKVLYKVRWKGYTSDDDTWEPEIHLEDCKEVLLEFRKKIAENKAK

T2: CBX7 chromodomain (residues 8-62), C-terminal His-tag (UniProt O95931 8-62)
T2 sequence (looked up): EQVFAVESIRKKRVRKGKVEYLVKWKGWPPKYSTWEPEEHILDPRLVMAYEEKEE

T3: CDYL2 chromodomain (residues 1-75), C-terminal His-tag (UniProt Q8N8U2 1-75)
T3 sequence (looked up): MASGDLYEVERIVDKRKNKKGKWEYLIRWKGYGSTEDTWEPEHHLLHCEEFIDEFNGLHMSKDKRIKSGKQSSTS


Experiments:
Assay in all cases: AlphaScreen or HTRF
[1] = target: T1, MPP8 chromodomain (residues 55-116), …
[2] = target: T2, CBX7 chromodomain (residues 8-62), …
[3] = target: T1, MPP8 chromodomain (residues 55-116), …; remark: listed apart in the source
[4] = target: T3, CDYL2 chromodomain (residues 1-75), …
[5] = target: T2, CBX7 chromodomain (residues 8-62), …; remark: listed apart in the source

Binder | IC50 [1] [nM] | IC50 [2] [nM] | IC50 [3] [nM] | IC50 [4] [nM] | IC50 [5] [nM]
FAF[Lys(Et,iPr)]S-OMe (not fully specified (N-terminus); also: N-terminal cap R1 not given here) [UNC6257] | 400 | 7000 |  |  | 
FAF[Lys(Et,iPr)]S-OMe (not fully specified (N-terminus); also: N-terminal cap R1 not given here) [UNC6263] | 900 | 6000 |  |  | 
{4‑piperidine cap}-FAFKS-OMe (reading uncertain; also: Lys4: lysine mimetic with a pyrroline substituent) [UNC6262] |  |  | 1400 | 700 | > 30000
{4‑piperidine cap}-FAFK(cyclohexyl)S-OMe (reading uncertain; also: Lys4: lysine mimetic with a cyclohexyl substituent) [UNC6217] |  |  | 400 | 70 | > 30000
FAFKS (N-terminal 4-piperidine cap; lysine mimetic with increased steric bulk on the lysine amine; C-terminal methyl ester) [UNC6254] |  |  | 800 | 200 | > 30000
{4‑piperidine cap}-FAFKS-OMe (reading uncertain; also: lysine mimetic with a piperidine substituent) [UNC6127] |  |  | 700 | 200 | > 30000
{4‑piperidine cap}-FAFKS-OMe (reading uncertain; also: Lys4: lysine mimetic with a tetrahydropyran substituent) [UNC6218] |  |  | 500 | 100 | > 30000
FAFKS (N-terminal 4-piperidine cap; lysine mimetic with a methyl-cyclopentyl amine; C-terminal methyl ester) [UNC6216] |  |  | 450 | 90 | > 30000
